Assay results taken from PMC8092709 (Journal of Virology, 2021).

B1: HCoV-229E S1-RBD (residues 295 to 428) with C-terminal Fc tag (Fc fusion)
chain: VYHKHTFIVLYVDFKPQSGGGKCFNCYPAGVNITLANFNETKGPLCVDTSHFTTKYVAVYANVGRWSASINTGNCPFSFGKVNNFVKFGSVCFSLKDIPGGCAMPIVANWAYSKYYTIGSLYVSWSDGDGITGV
B2: HCoV-229E S1 (residues 1 to 536) with C-terminal Fc tag (Fc fusion)
chain: CQTTNGLNTSYSVCNGCVGYSENVFAVESGGYIPSDFAFNNWFLLTNTSSVVDGVVRSFQPLLLNCLWSVSGLRFTTGFVYFNGTGRGDCKGFSSDVLSDVIRYNLNFEENLRRGTILFKTSYGVVVFYCTNNTLVSGDAHIPFGTVLGNFYCFVNTTIGNETTSAFVGALPKTVREFVISRTGHFYINGYRYFTLGNVEAVNFNVTTAETTDFCTVALASYADVLVNVSQTSIANIIYCNSVINRLRCDQLSFDVPDGFYSTSPIQSVELPVSIVSLPVYHKHTFIVLYVDFKPQSGGGKCFNCYPAGVNITLANFNETKGPLCVDTSHFTTKYVAVYANVGRWSASINTGNCPFSFGKVNNFVKFGSVCFSLKDIPGGCAMPIVANWAYSKYYTIGSLYVSWSDGDGITGVPQPVEGVSSFMNVTLDKCTKYNIYDVSGVGVIRVSNDTFLNGITYTSTSGNLLGFKDVTKGTIYSITPCNPPDQLVVYQQAVVGAMLSENFTSYGFSNVVELPKFFYA

Molecular target: human aminopeptidase N (hAPN), residues 66 to 967 (human, UniProt P15144 66-967)
Sequence (P15144 66-967): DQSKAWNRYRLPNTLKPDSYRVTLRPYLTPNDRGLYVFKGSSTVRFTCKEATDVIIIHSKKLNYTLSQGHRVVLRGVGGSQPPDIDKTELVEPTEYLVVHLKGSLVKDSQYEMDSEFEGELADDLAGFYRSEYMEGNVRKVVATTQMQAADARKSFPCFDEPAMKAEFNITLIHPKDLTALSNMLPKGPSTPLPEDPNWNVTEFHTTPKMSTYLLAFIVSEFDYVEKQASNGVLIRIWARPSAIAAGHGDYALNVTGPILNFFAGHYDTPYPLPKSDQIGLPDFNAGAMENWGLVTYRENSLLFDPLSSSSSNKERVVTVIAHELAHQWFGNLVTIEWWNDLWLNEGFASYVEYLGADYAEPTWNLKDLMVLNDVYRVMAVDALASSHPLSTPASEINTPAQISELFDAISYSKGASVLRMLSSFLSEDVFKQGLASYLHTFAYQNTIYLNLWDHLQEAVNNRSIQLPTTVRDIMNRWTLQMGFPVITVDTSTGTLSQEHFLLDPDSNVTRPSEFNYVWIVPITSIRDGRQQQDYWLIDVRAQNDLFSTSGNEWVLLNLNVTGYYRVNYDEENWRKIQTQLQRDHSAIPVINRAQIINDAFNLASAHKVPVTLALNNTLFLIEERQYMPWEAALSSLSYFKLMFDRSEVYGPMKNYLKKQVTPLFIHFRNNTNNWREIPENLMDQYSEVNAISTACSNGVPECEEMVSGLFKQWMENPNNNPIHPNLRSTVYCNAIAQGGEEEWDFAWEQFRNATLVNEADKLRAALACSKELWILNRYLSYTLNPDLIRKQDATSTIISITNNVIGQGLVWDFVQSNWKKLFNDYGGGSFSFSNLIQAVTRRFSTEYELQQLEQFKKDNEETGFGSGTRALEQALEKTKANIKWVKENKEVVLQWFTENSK
Experiment: SPR

Binder	Kd	koff	kon
B1	36 nM	0.00115 s⁻¹	32000 M⁻¹ s⁻¹
B2	255 nM	0.000226 s⁻¹	886 M⁻¹ s⁻¹
